The target in the assay is HLA-A*02:01 (Homo sapiens, UniProt P04439, D140Y/D185E/D98H/E176V/E277Q/G131W/G231S/I119V/I121R/I166T/I218V/L300P/L318F/N151K/N90K/P208A/P217A/Q86G/Q94H/R138H/R169H/T345S). In words: MHC binding assay (UV-ligand exchange, beta2m ELISA). The settings on record: binding to HLA-A*02:01, β2m ELISA. The source says:
Candidate peptides for T cell based therapies according to the present invention were further tested for their MHC binding capacity (affinity). The individual peptide-MHC complexes were produced by UV-ligand exchange, where a UV-sensitive peptide is cleaved upon UV-irradiation, and exchanged with the peptide of interest as analyzed. Only peptide candidates that can effectively bind and stabilize the peptide-receptive MHC molecules prevent dissociation of the MHC complexes. To determine the yield of the exchange reaction, an ELISA was performed based on the detection of the light chain (β2m) of stabilized MHC complexes. The assay was performed as generally described in Rodenko et al. (Rodenko et al., 2006).
96 well MAXISorp plates (NUNC) were coated over night with 2 ug/ml streptavidin in PBS at room temperature, washed 4× and blocked for 1 h at 37° C. in 2% BSA containing blocking buffer. Refolded HLA-A*02:01/MLA-001 monomers served as standards, covering the range of 15-500 ng/ml. Peptide-MHC monomers of the UV-exchange reaction were diluted 100 fold in blocking buffer. Samples were incubated for 1 h at 37° C., washed four times, incubated with 2 ug/ml HRP conjugated anti-82m for 1 h at 37° C., washed again and detected with TMB solution that is stopped with […]. Absorption was measured at 450 nm. Candidate peptides that show a high exchange yield (preferably higher than 50%, most preferred higher than 75%) are generally preferred for a generation and production of antibodies or fragments thereof, and/or T cell receptors or fragments thereof, as they show sufficient avidity to the MHC molecules and prevent dissociation of the MHC complexes.
A general note: ELISA stands for enzyme-linked immunosorbent assay.

With “256 (FLNDIFERI; listed as Homo sapiens) [compound 256]”, the “Peptide exchange (MHC class I binding score, peptide exchange yield)” value (shortened to “Peptide exchange”) is “+++ (≥50 = +++)”.
As to “190 (SLSTELFKV; listed as Homo sapiens) [compound 190]”, the “Peptide exchange” value is “+++ (≥50 = +++)”.
As for “243 (GLAEFQENV; listed as Homo sapiens) [compound 243]”, the “Peptide exchange” value was “++ (≥20% = ++)”.
In the case of “238 (HLQEKLQSL; listed as Homo sapiens) [compound 238]” it was “++ (≥20% = ++)”; in that of “181 (LLWAPTAQA; listed as Homo sapiens) [compound 181]”, “+++ (≥50 = +++)”.
Consider “95 (KLIDEDEPLFL; listed as Homo sapiens) [compound 95]”, for which the “Peptide exchange” value is recorded as “+++ (≥50 = +++)”.
Take “74 (GLAFLPASV; listed as Homo sapiens) [compound 74]”: the “Peptide exchange” value is reported as “++ (≥20% = ++)”.
To “126 (QLREAFEQL; listed as Homo sapiens) [compound 126]” belongs “+++ (≥50 = +++)”; to “175 (SLLDLVQSL; listed as Homo sapiens) [compound 175]”, “+++ (≥50 = +++)”.
On to “262 (LLLEAVWHL; listed as Homo sapiens) [compound 262]”, for which the “Peptide exchange” value is on record as “+++ (≥50 = +++)”.
To “62 (SLVENIHVL; listed as Homo sapiens) [compound 62]” belongs “+++ (≥50 = +++)”; to “44 (AVFNLVHVV; listed as Homo sapiens) [compound 44]”, “+++ (≥50 = +++)”.
To “132 (ALLNNVIEV; listed as Homo sapiens) [compound 132]” belongs “+++ (≥50 = +++)”; to “234 (VLLNEILEQV; listed as Homo sapiens) [compound 234]”, “++++ (≥75% = ++++)”.
Regarding “67 (FLIENLLAA; listed as Homo sapiens) [compound 67]”, the “Peptide exchange” value is given as “+++ (≥50 = +++)”.
As to “7 (ALLQALMEL; listed as Homo sapiens) [compound 7]”, the “Peptide exchange” value is reported as “+++ (≥50 = +++)”.
In the case of “162 (GLLGNLLTSL; listed as Homo sapiens) [compound 162]” it was “+++ (≥50 = +++)”; in that of “70 (GLTEKTVLV; listed as Homo sapiens) [compound 70]”, “++ (≥20% = ++)”; in that of “173 (RLIDIYKNV; listed as Homo sapiens) [compound 173]”, “+++ (≥50 = +++)”.
In the case of “69 (LKVLKADVVL; listed as Homo sapiens) [compound 69]” it was “++ (≥20% = ++)”.
Take “216 (ALSTVTPRI; listed as Homo sapiens) [compound 216]”: the “Peptide exchange” value was “++ (≥20% = ++)”.
Consider “179 (TLGEIIKGV; listed as Homo sapiens) [compound 179]”, for which the “Peptide exchange” value was “+++ (≥50 = +++)”.
In the case of “280 (HLWGHALFL; listed as Homo sapiens) [compound 280]”, the “Peptide exchange” value is “+++ (≥50 = +++)”.
To “286 (FLTEMVHFI; listed as Homo sapiens) [compound 286]” belongs “+++ (≥50 = +++)”.
“147 (GLLSALENV; listed as Homo sapiens) [compound 147]”: the “Peptide exchange” value is reported as “+++ (≥50 = +++)”.
In the case of “51 (LDSEALLTL; listed as Homo sapiens) [compound 51]”, the “Peptide exchange” value is “++ (≥20% = ++)”.
In the case of “112 (ILAQDVAQL; listed as Homo sapiens) [compound 112]” it was “+++ (≥50 = +++)”.
Turning to “200 (IMPTFDLTKV; listed as Homo sapiens) [compound 200]”, the “Peptide exchange” value is “+++ (≥50 = +++)”.
In the case of “10 (QLIEKNWLL; listed as Homo sapiens) [compound 10]” it was “+++ (≥50 = +++)”; in that of “245 (ALLEEEEGV; listed as Homo sapiens) [compound 245]”, “++ (≥20% = ++)”; in that of “225 (FLPQPVPLSV; listed as Homo sapiens) [compound 225]”, “+++ (≥50 = +++)”.
Take “168 (VIFEGEPMYL; listed as Homo sapiens) [compound 168]”: the “Peptide exchange” value was “+++ (≥50 = +++)”.
For “259 (GPGIFPPPPPQP; listed as Homo sapiens) [compound 259]”, the “Peptide exchange” value is reported as “+ (≥10% = +)”.
In the case of “239 (VIIKGLEEITV; listed as Homo sapiens) [compound 239]”, the “Peptide exchange” value was “+++ (≥50 = +++)”.
In the case of “163 (GLEERLYTA; listed as Homo sapiens) [compound 163]” it was “++ (≥20% = ++)”; in that of “274 (TLYNPERTITV; listed as Homo sapiens) [compound 274]”, “+++ (≥50 = +++)”.
In the case of “215 (QIADIVTSV; listed as Homo sapiens) [compound 215]” it was “++ (≥20% = ++)”; in that of “281 (LLLESDPKVYSL; listed as Homo sapiens) [compound 281]”, “++ (≥20% = ++)”; in that of “193 (ALFHMNILL; listed as Homo sapiens) [compound 193]”, “+++ (≥50 = +++)”.
“182 (GLQDGFQITV; listed as Homo sapiens) [compound 182]”: the “Peptide exchange” value is listed as “+++ (≥50 = +++)”.
For “266 (FLLDKPQDL; listed as Homo sapiens) [compound 266]”, the “Peptide exchange” value is reported as “++ (≥20% = ++)”.
To “184 (ALDSTIAHL; listed as Homo sapiens) [compound 184]” belongs “++ (≥20% = ++)”; to “151 (DISKRIQSL; listed as Homo sapiens) [compound 151]”, “++ (≥20% = ++)”; to “230 (KLLNMIFSI; listed as Homo sapiens) [compound 230]”, “+++ (≥50 = +++)”.
In the case of “155 (TLDSYLKAV; listed as Homo sapiens) [compound 155]” it was “++ (≥20% = ++)”; in that of “136 (LLWDAPAKC; listed as Homo sapiens) [compound 136]”, “+++ (≥50 = +++)”; in that of “81 (ILAEEPIYI; listed as Homo sapiens) [compound 81]”, “++ (≥20% = ++)”.
To “279 (VLMDEGAVLTL; listed as Homo sapiens) [compound 279]” belongs “++ (≥20% = ++)”.
As to “187 (SILKEDPFL; listed as Homo sapiens) [compound 187]”, the “Peptide exchange” value is reported as “++ (≥20% = ++)”.
Turning to “161 (NLLDENVCL; listed as Homo sapiens) [compound 161]”, the “Peptide exchange” value is “++++ (≥75% = ++++)”.
To “178 (SLVSWQLLL; listed as Homo sapiens) [compound 178]” belongs “++++ (≥75% = ++++)”; to “21 (YLMDDFSSL; listed as Homo sapiens) [compound 21]”, “+++ (≥50 = +++)”; to “52 (TIGIPFPNV; listed as Homo sapiens) [compound 52]”, “++ (≥20% = ++)”.
In the case of “144 (FLISQTPLL; listed as Homo sapiens) [compound 144]” it was “+++ (≥50 = +++)”; in that of “1 (KLQEKIQEL; listed as Homo sapiens) [compound 1]”, “++++ (≥75% = ++++)”; in that of “275 (AVPPPPSSV; listed as Homo sapiens) [compound 275]”, “++ (≥20% = ++)”.
In the case of “165 (SLLDYEVSI; listed as Homo sapiens) [compound 165]” it was “+++ (≥50 = +++)”.

Source of the values: patent US10081665B2, “Peptides and combination of peptides for use in immunotherapy against various tumors” (immatics biotechnologies GmbH, priority 2015, dated 2018).
